Experimental data as given in patent US20260167684A1 (MERIDA BIOSCIENCES, published 2026).

T1: FcγRIIA167H (UniProt P12318 36-218)
T1 construct: Soluble protein used in SPR
T1 sequence (looked up): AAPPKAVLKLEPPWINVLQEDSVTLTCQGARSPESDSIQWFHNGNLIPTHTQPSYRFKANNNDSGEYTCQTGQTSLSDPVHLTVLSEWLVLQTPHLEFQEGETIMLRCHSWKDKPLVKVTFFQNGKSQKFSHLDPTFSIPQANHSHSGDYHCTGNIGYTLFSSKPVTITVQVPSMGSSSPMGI

T2: FcγRIIB (human, UniProt P31994 46-217, limits assumed)
T2 construct: Soluble protein used in SPR
T2 sequence (looked up): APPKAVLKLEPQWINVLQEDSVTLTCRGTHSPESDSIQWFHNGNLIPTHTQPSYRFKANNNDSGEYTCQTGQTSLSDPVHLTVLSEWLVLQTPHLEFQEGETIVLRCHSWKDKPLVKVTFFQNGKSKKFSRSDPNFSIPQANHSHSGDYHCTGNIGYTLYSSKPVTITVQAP

T3: FcγRIIA167R (UniProt P12318 36-218)
T3 construct: Soluble protein used in SPR
T3 sequence (looked up): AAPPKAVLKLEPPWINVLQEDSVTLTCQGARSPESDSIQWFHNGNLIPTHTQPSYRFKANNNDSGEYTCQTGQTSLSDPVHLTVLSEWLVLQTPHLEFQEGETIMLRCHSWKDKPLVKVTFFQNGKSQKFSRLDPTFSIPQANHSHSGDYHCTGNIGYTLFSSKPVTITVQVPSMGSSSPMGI


Key:
FcγRIIA167H [1] = target: T1, FcγRIIA167H; assay: SPR, molecule captured on the sensor chip, FcγRIIA167H as analyte
Experimental: (§1) Binding assays using SPR were performed to determine the binding affinity of the exemplary molecules. Molecules were captured on a CM5 SPR chip. Increasing concentrations of FcγR analyte (FcγRIIA167H, FcγRIIA167R or FcγRIIB) were subsequently injected over the captured molecules and a single dissociation performed using single cycle kinetics. The data was then analyzed using steady state analysis which is suitable for low affinity interactions. In particular, a plot of response at equilibrium against the molecule concentration was generated.

FcγRIIB = target: T2, FcγRIIB; assay: SPR; molecule captured on CM5 chip, FcγR as analyte; steady-state fit
Experimental: as §1

FcγRIIA167R = target: T3, FcγRIIA167R; assay: as above
Experimental: as §1

FcγRIIA167H [2] = target: T1, FcγRIIA167H; assay: as above
Experimental: as §1

Binder | binding result (FcγRIIA167H [1]) | Kd (FcγRIIB) | Kd (FcγRIIA167R) | Kd (FcγRIIA167H [2])
Variant G2 (Fc fusion, Knob-in-hole heterodimer; also called TSHR260 2P2R huIgG1 Fc E233V/L234D/L235F/G236R/G237D/S239L/S267D/R292Q/H268P/S298G/T299A/A327L/L328A/A330H/E333I) chain 1: MGCSSPPCECHQEEDFRVTCKDIQRIPSLPPSTQTLKLIETHLRTIPSHAFSNLPNISRIYVSIDVTLQQLESHSFYNLSKVTHIEIRNTPNLTYIDPDALKELPLLKFLGIFNTGLKMFPPLTKVYSTDIFFILEITDNPYMTSIPRNAFQGLCNETLTLKLYNNGFTSVQGYAFNGTKLDAVYLNKNKYLTVIDKDAFGGVYSGPSLLDVSQTSVTALPSKGLEHLKELRARNTWTLDKTHTCPPCPAPVDFRDPLVFLFPPKPKDTLMISRTPEVTCVVVDVDPEDPEVKFNWYVDGVEVHNAKTKPQEEQYNGAYRVVSVLTVLHQDWLNGKEYKCKVSNKLAPHPIIKTISKAKGQPREPQVYTLPPCRDELTKNQVSLWCLVKGFYPSDIAVEWESNGQPENNYKTTPPVLDSDGSFFLYSKLTVDKSRWQQGNVFSCSVMHEALHNHYTQKSLSLSPGK chain 2: DKTHTCPPCPAPVDFRDPLVFLFPPKPKDTLMISRTPEVTCVVVDVDPEDPEVKFNWYVDGVEVHNAKTKPQEEQYNGAYRVVSVLTVLHQDWLNGKEYKCKVSNKLAPHPIIKTISKAKGQPREPQVCTLPPSRDELTKNQVSLSCAVKGFYPSDIAVEWESNGQPENNYKTTPPVLDSDGSFFLVSKLTVDKSRWQQGNVFSCSVMHEALHNHYTQKSLSLSPGK | no binding (tested: about 2.4e-6 M) | 2.61 µM | – | –
Variant G12 (Fc fusion, Knob-in-hole heterodimer; also called TSHR260 2P2R huIgG1 Fc G237D/P238D/P271G/A330R) chain 1: MGCSSPPCECHQEEDFRVTCKDIQRIPSLPPSTQTLKLIETHLRTIPSHAFSNLPNISRIYVSIDVTLQQLESHSFYNLSKVTHIEIRNTPNLTYIDPDALKELPLLKFLGIFNTGLKMFPPLTKVYSTDIFFILEITDNPYMTSIPRNAFQGLCNETLTLKLYNNGFTSVQGYAFNGTKLDAVYLNKNKYLTVIDKDAFGGVYSGPSLLDVSQTSVTALPSKGLEHLKELRARNTWTLDKTHTCPPCPAPELLGDDSVFLFPPKPKDTLMISRTPEVTCVVVDVSHEDGEVKFNWYVDGVEVHNAKTKPREEQYNSTYRVVSVLTVLHQDWLNGKEYKCKVSNKALPRPIEKTISKAKGQPREPQVYTLPPCREEMTKNQVSLWCLVKGFYPSDIAVEWESNGQPENNYKTTPPVLDSDGSFFLYSKLTVDKSRWQQGNVFSCSVMHEALHNHYTQKSLSLSPGK chain 2: DKTHTCPPCPAPELLGDDSVFLFPPKPKDTLMISRTPEVTCVVVDVSHEDGEVKFNWYVDGVEVHNAKTKPREEQYNSTYRVVSVLTVLHQDWLNGKEYKCKVSNKALPRPIEKTISKAKGQPREPQVCTLPPSREEMTKNQVSLSCAVKGFYPSDIAVEWESNGQPENNYKTTPPVLDSDGSFFLVSKLTVDKSRWQQGNVFSCSVMHEALHNHYTQKSLSLSPGK | – | 0.0223 µM | 0.369 µM | 3.81 µM
Variant G13 (Fc fusion, Knob-in-hole heterodimer; also called TSHR260 2P2R huIgG1 Fc G237D/P238D/D270E/P271G/A330R) chain 1: MGCSSPPCECHQEEDFRVTCKDIQRIPSLPPSTQTLKLIETHLRTIPSHAFSNLPNISRIYVSIDVTLQQLESHSFYNLSKVTHIEIRNTPNLTYIDPDALKELPLLKFLGIFNTGLKMFPPLTKVYSTDIFFILEITDNPYMTSIPRNAFQGLCNETLTLKLYNNGFTSVQGYAFNGTKLDAVYLNKNKYLTVIDKDAFGGVYSGPSLLDVSQTSVTALPSKGLEHLKELRARNTWTLDKTHTCPPCPAPELLGDDSVFLFPPKPKDTLMISRTPEVTCVVVDVSHEEGEVKFNWYVDGVEVHNAKTKPREEQYNSTYRVVSVLTVLHQDWLNGKEYKCKVSNKALPRPIEKTISKAKGQPREPQVYTLPPCREEMTKNQVSLWCLVKGFYPSDIAVEWESNGQPENNYKTTPPVLDSDGSFFLYSKLTVDKSRWQQGNVFSCSVMHEALHNHYTQKSLSLSPGK chain 2: DKTHTCPPCPAPELLGDDSVFLFPPKPKDTLMISRTPEVTCVVVDVSHEEGEVKFNWYVDGVEVHNAKTKPREEQYNSTYRVVSVLTVLHQDWLNGKEYKCKVSNKALPRPIEKTISKAKGQPREPQVCTLPPSREEMTKNQVSLSCAVKGFYPSDIAVEWESNGQPENNYKTTPPVLDSDGSFFLVSKLTVDKSRWQQGNVFSCSVMHEALHNHYTQKSLSLSPGK | – | 0.127 µM | 1.79 µM | –
Variant G14 (Fc fusion, Knob-in-hole heterodimer; also called TSHR260 2P2R huIgG1 Fc S239D/H268D/L328W) chain 1: MGCSSPPCECHQEEDFRVTCKDIQRIPSLPPSTQTLKLIETHLRTIPSHAFSNLPNISRIYVSIDVTLQQLESHSFYNLSKVTHIEIRNTPNLTYIDPDALKELPLLKFLGIFNTGLKMFPPLTKVYSTDIFFILEITDNPYMTSIPRNAFQGLCNETLTLKLYNNGFTSVQGYAFNGTKLDAVYLNKNKYLTVIDKDAFGGVYSGPSLLDVSQTSVTALPSKGLEHLKELRARNTWTLDKTHTCPPCPAPELLGGPDVFLFPPKPKDTLMISRTPEVTCVVVDVSDEDPEVKFNWYVDGVEVHNAKTKPREEQYNSTYRVVSVLTVLHQDWLNGKEYKCKVSNKAWPAPIEKTISKAKGQPREPQVYTLPPCRDELTKNQVSLWCLVKGFYPSDIAVEWESNGQPENNYKTTPPVLDSDGSFFLYSKLTVDKSRWQQGNVFSCSVMHEALHNHYTQKSLSLSPGK chain 2: DKTHTCPPCPAPELLGGPDVFLFPPKPKDTLMISRTPEVTCVVVDVSDEDPEVKFNWYVDGVEVHNAKTKPREEQYNSTYRVVSVLTVLHQDWLNGKEYKCKVSNKAWPAPIEKTISKAKGQPREPQVCTLPPSRDELTKNQVSLSCAVKGFYPSDIAVEWESNGQPENNYKTTPPVLDSDGSFFLVSKLTVDKSRWQQGNVFSCSVMHEALHNHYTQKSLSLSPGK | – | 0.0309 µM | 0.00432 µM | 0.114 µM

More lines, in order of falling Kd (FcγRIIB), values ahead:

binding result (FcγRIIA167H [1]) | Kd (FcγRIIB) | Kd (FcγRIIA167R) | Kd (FcγRIIA167H [2]) | Binder
no binding (tested: about 2.4e-6 M) | 2.62 µM | – | – | Variant G1 (Fc fusion, Knob-in-hole heterodimer; also called TSHR260 2P2R huIgG1 Fc E233V/L234D/L235F/G236R/G237D/S239L/S267D/H268P/S298G/T299A/A327L/L328A/A330H/E333I) chain 1: MGCSSPPCECHQEEDFRVTCKDIQRIPSLPPSTQTLKLIETHLRTIPSHAFSNLPNISRIYVSIDVTLQQLESHSFYNLSKVTHIEIRNTPNLTYIDPDALKELPLLKFLGIFNTGLKMFPPLTKVYSTDIFFILEITDNPYMTSIPRNAFQGLCNETLTLKLYNNGFTSVQGYAFNGTKLDAVYLNKNKYLTVIDKDAFGGVYSGPSLLDVSQTSVTALPSKGLEHLKELRARNTWTLDKTHTCPPCPAPVDFRDPLVFLFPPKPKDTLMISRTPEVTCVVVDVDPEDPEVKFNWYVDGVEVHNAKTKPREEQYNGAYRVVSVLTVLHQDWLNGKEYKCKVSNKLAPHPIIKTISKAKGQPREPQVYTLPPCRDELTKNQVSLWCLVKGFYPSDIAVEWESNGQPENNYKTTPPVLDSDGSFFLYSKLTVDKSRWQQGNVFSCSVMHEALHNHYTQKSLSLSPGK chain 2: DKTHTCPPCPAPVDFRDPLVFLFPPKPKDTLMISRTPEVTCVVVDVDPEDPEVKFNWYVDGVEVHNAKTKPREEQYNGAYRVVSVLTVLHQDWLNGKEYKCKVSNKLAPHPIIKTISKAKGQPREPQVCTLPPSRDELTKNQVSLSCAVKGFYPSDIAVEWESNGQPENNYKTTPPVLDSDGSFFLVSKLTVDKSRWQQGNVFSCSVMHEALHNHYTQKSLSLSPGK
no binding (tested: about 2.4e-6 M) | 0.335 µM | – | – | Variant G6 (Fc fusion, Knob-in-hole heterodimer; also called TSHR260 2P2R huIgG1 Fc L234D/G236N/S267E) chain 1: MGCSSPPCECHQEEDFRVTCKDIQRIPSLPPSTQTLKLIETHLRTIPSHAFSNLPNISRIYVSIDVTLQQLESHSFYNLSKVTHIEIRNTPNLTYIDPDALKELPLLKFLGIFNTGLKMFPPLTKVYSTDIFFILEITDNPYMTSIPRNAFQGLCNETLTLKLYNNGFTSVQGYAFNGTKLDAVYLNKNKYLTVIDKDAFGGVYSGPSLLDVSQTSVTALPSKGLEHLKELRARNTWTLDKTHTCPPCPAPEDLNGPSVFLFPPKPKDTLMISRTPEVTCVVVDVEHEDPEVKFNWYVDGVEVHNAKTKPREEQYNSTYRVVSVLTVLHQDWLNGKEYKCKVSNKALPAPIEKTISKAKGQPREPQVYTLPPCRDELTKNQVSLWCLVKGFYPSDIAVEWESNGQPENNYKTTPPVLDSDGSFFLYSKLTVDKSRWQQGNVFSCSVMHEALHNHYTQKSLSLSPGK chain 2: DKTHTCPPCPAPEDLNGPSVFLFPPKPKDTLMISRTPEVTCVVVDVEHEDPEVKFNWYVDGVEVHNAKTKPREEQYNSTYRVVSVLTVLHQDWLNGKEYKCKVSNKALPAPIEKTISKAKGQPREPQVCTLPPSRDELTKNQVSLSCAVKGFYPSDIAVEWESNGQPENNYKTTPPVLDSDGSFFLVSKLTVDKSRWQQGNVFSCSVMHEALHNHYTQKSLSLSPGK
– | 0.0556 µM | 0.836 µM | – | Variant G4 (Fc fusion, Knob-in-hole heterodimer; also called TSHR260 2P2R huIgG1 Fc E233D/G237D/P238D/H268D/P271G/A330R) chain 1: MGCSSPPCECHQEEDFRVTCKDIQRIPSLPPSTQTLKLIETHLRTIPSHAFSNLPNISRIYVSIDVTLQQLESHSFYNLSKVTHIEIRNTPNLTYIDPDALKELPLLKFLGIFNTGLKMFPPLTKVYSTDIFFILEITDNPYMTSIPRNAFQGLCNETLTLKLYNNGFTSVQGYAFNGTKLDAVYLNKNKYLTVIDKDAFGGVYSGPSLLDVSQTSVTALPSKGLEHLKELRARNTWTLDKTHTCPPCPAPDLLGDDSVFLFPPKPKDTLMISRTPEVTCVVVDVSDEDGEVKFNWYVDGVEVHNAKTKPREEQYNSTYRVVSVLTVLHQDWLNGKEYKCKVSNKALPRPIEKTISKAKGQPREPQVYTLPPCRDELTKNQVSLWCLVKGFYPSDIAVEWESNGQPENNYKTTPPVLDSDGSFFLYSKLTVDKSRWQQGNVFSCSVMHEALHNHYTQKSLSLSPGK chain 2: DKTHTCPPCPAPDLLGDDSVFLFPPKPKDTLMISRTPEVTCVVVDVSDEDGEVKFNWYVDGVEVHNAKTKPREEQYNSTYRVVSVLTVLHQDWLNGKEYKCKVSNKALPRPIEKTISKAKGQPREPQVCTLPPSRDELTKNQVSLSCAVKGFYPSDIAVEWESNGQPENNYKTTPPVLDSDGSFFLVSKLTVDKSRWQQGNVFSCSVMHEALHNHYTQKSLSLSPGK
